Our source for the stoichiometry N values is article PMC10197516.

The target in the experiment is SARS-CoV-2 spike-protein trimers. Nature of the experiment: SEC + other: negative-stain electron microscopy.

Turning to SARS-CoV-2 spike-protein trimers, the stoichiometry N – broadly, a count of units in the complex or per binding partner – came out at 3.
